Results: the nanobody polyreactivity screen of Harvey et al. (2022)

Assay: yeast display, Sf9 membrane polyspecificity reagent, FACS + sequencing; frameworks hold sequencing errors
In short: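 A synthetic nanobody library was expressed on Saccharomyces cerevisiae BJ5465 by galactose induction for 36–48 hours. The library was stained for 1 hour at 4 °C with 10% biotinylated, detergent-solubilized Sf9 membrane reagent and enriched with streptavidin microbeads before FACS. Low and high (top ~1%) gates were set on anti-HA fluorescence for expression and streptavidin fluorescence for reagent binding, and each polyreactivity label reflects the gate of origin.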
In the case of “QVQLVESGGGLVQAGGSLRLSCAASGSTFEVYTMGWSIQSPGKVRELVATISGDDGSTYYADSVKGRFTISRDNAKNTVYLQMNSLKPEDTAVYYCAADYGGFPNYYSTGDYWGQGTQVTVSS”, the “polyreactivity (PSR sort gate)” value is reported as “low polyreactivity”. For “QVQLVESGGGLVQAGGSLRLSCAASGSTFEWNAMGWYRQAPGKERELVAAISWRTTRTYYADSVKGRFTISRDNAKNTVYLQMNSLKPEDTAVYYCAVVTSPYYGGYEYWGQGTQVTVSS”, the “polyreactivity (PSR sort gate)” value was “high polyreactivity”. For “QVQLVESGGGLVQAGGSLRLSCAASGSTFEYNAMGWYRQAPGKERELLADISYSDGSTYYADSVKGRFTISRDNAMNTVYLQMNSLKPEDTGVYYCAAYSGYGGVSMYYWGQGTHVTVSS”, the “polyreactivity (PSR sort gate)” value was “low polyreactivity”. With “QVQLVESGGGLVQAGGSLRLSCAASGSTFEYNAMGWYRQAPGKERELVASSTNYADSGKGRFTISRDNAKNTVYLQMNSLKPEDTAVYYCAREQGVNRNHDYWGQGTQVTVSS” the “polyreactivity (PSR sort gate)” value was “low polyreactivity”. For “QVQLVESGGGLVQAGGSLRLSCAASGSTFEYNAMGWYRQAPGKERELVASSTNYADSVKGRFTISRDNAKNTVYLQMNSLIPEDTAVYYCAREQGVNRNHDYWGQGTQVTVSS”, the “polyreactivity (PSR sort gate)” value was “low polyreactivity”. With “QVQLVESGGGLVQAGGSLRLSCAASGSTFEYNAMGWYRQAPGKERELVASSTNYADSVKGRFTISRDNAKNTVYLQMNSLKPEDTAVYYCAKTYWYPYGYWGQGTQVTVSS” the “polyreactivity (PSR sort gate)” value was “low polyreactivity”. For “QVQLVESGGGLVQAGGSLRLSCAASGSTFEYNVMGWYRQAPGKERELVAAITSGASTNYADSVKGRFTISRDNAKNSVYLQMNSLKPEDTAVYYCAAGESGSFFIYYYWGQGTQVTVSS”, the “polyreactivity (PSR sort gate)” value was “low polyreactivity”. For “QVQLVESGGGLVQAGGSLRLSCAASGSTFEYYAMGWDRQAPGKERELVAAISITGGSSYYADSVKGRFTISRDNAKNTVYLQMNSLKPEDTAVCYCAASVPLARRLGYPWRRAGYNYWGQGTQVTVSS”, the “polyreactivity (PSR sort gate)” value was “high polyreactivity”. For “QVQLVESGGGLVQAGGSLRLSCAASGSTFEYYAMGWYRQAPGKERELVAAISTAGSTYYADSVKGRFTISRDNAKNTVYLQMNSLKQEDTAVYYCAVDPSPRSYYNYYWGQGTQVTVSS”, the “polyreactivity (PSR sort gate)” value was “high polyreactivity”. For “QVQLVESGGGLVQAGGSLRLSCAASGSTFEYYAMGWYRQAPGKERELVAGISTGGSTNYADSVKGRFTISRDNAKNTVYVQMNSLKTEDSAVYYCKRDWALYVFCRHYHAYYSWGQRTQVTVSS”, the “polyreactivity (PSR sort gate)” value was “low polyreactivity”. With “QVQLVESGGGLVQAGGSLRLSCAASGSTFEYYAMGWYRQAPGKERELVATISIDGRTNYADSVKGRFTISRDNAKYTVYLQMNSLKPEDTAVYYCAASDLTAISSKYDYWGQGTQVTVSS” the “polyreactivity (PSR sort gate)” value was “low polyreactivity”. With “QVQLVESGGGLVQAGGSLRLSCAASGSTFFDYAMGWYRQAPGKERELVAAISRSGDTNYADSVKGRFTMSRDNAKNTVYLHMNSLKPEDTAVYYCAKYWAYRRHWVGFYYWGQGTLVTVSS” the “polyreactivity (PSR sort gate)” value was “low polyreactivity”. In the case of “QVQLVESGGGLVQAGGSLRLSCAASGSTFFEYAMGWYRKAPGKEREFVAGISWSGGITYYADSVKGRFTISRDNAKNTVYLQMNSLKPEDTAVYYCATAGGDWYGVDYWGQGTQVTVSS”, the “polyreactivity (PSR sort gate)” value is reported as “low polyreactivity”. In the case of “QVQLVESGGGLVQAGGSLRLSCAASGSTFFFNAMGWYRQAPGKERELVAGISSSGGSTHYADSVKGRFTISRDNAKNTVYLQMNSLKPEDTAVYYCNAQQYLTFRGTGDYWGQGTQVTVSS”, the “polyreactivity (PSR sort gate)” value is reported as “low polyreactivity”. With “QVQLVESGGGLVQAGGSLRLSCAASGSTFFGNTMGWYRQAPGKERELVAAISRRGGSTYYADSVKGRFTISRDNAKNTVYLQMTSLIPEDTAVYYCAKYYQSGGYTPGKYDYWGQGTQVTVSS” the “polyreactivity (PSR sort gate)” value was “high polyreactivity”. With “QVQLVESGGGLVQAGGSLRLSCAASGSTFFGYAMGWYRQAPGKERELVASITWSSGRTNYADSVKGRFTISRDNAKNTVFLQRYSVKPEETAVYYCAQVLDHQLYIDHWVRIYGYWGQGTQVTVSS” the “polyreactivity (PSR sort gate)” value was “low polyreactivity”. In the case of “QVQLVESGGGLVQAGGSLRLSCAASGSTFFIYAMGRYRQAPGEERELVAAITSGGTYADSVKGRFTISRDNAKNTVYLQMNSLKPVDTAVYYCNAGNNVVVDYDYWGQGTQVTVSS”, the “polyreactivity (PSR sort gate)” value is reported as “low polyreactivity”. In the case of “QVQLVESGGGLVQAGGSLRLSCAASGSTFFPNAMGWYRQAPGKERELVAAIRWRGGTYYADSVKGRFTISRDNAKNTVYLQMNSLKQEDTAVYYCATSVKPSYDYWGQGTQVTVSS”, the “polyreactivity (PSR sort gate)” value is reported as “low polyreactivity”. For “QVQLVESGGGLVQAGGSLRLSCAASGSTFFPNDKGWYRQAPGKERELVAAISWRGGNTYADSVKGLFTISRDNAKYTVYLQMNSLKPEDTAVYYCAAEFWYTYPYLVDYWGQGTLVTVSS”, the “polyreactivity (PSR sort gate)” value was “low polyreactivity”. With “QVQLVESGGGLVQAGGSLRLSCAASGSTFFPNGMGWYRLAPGKERELVAAITQDGGSTYYADSVKGRFTISRDNAKNTVSLQMNSLKPEDTAVYYCAASAGPSYEYGYWGQGTQVTVSS” the “polyreactivity (PSR sort gate)” value was “low polyreactivity”. For “QVQLVESGGGLVQAGGSLRLSCAASGSTFFRNAMGWYRQAPGKERELVASITSGGNTKYADSVKGRFTISRDNAKNTVYLQMNSLKPEDTAVYYCAAKFYHFASYSRLYNYWGQGTQVTVSS”, the “polyreactivity (PSR sort gate)” value was “low polyreactivity”. For “QVQLVESGGGLVQAGGSLRLSCAASGSTFFRYAMGWYRQAPGKERELVAAISYSGDSTYYADSVKGRFTISRDNAKNTVDLQMNSLKPEDTAVYYCNAVYFRYRYNYWGQGTQVTVSS”, the “polyreactivity (PSR sort gate)” value was “high polyreactivity”. With “QVQLVESGGGLVQAGGSLRLSCAASGSTFFRYAMGWYRQAPGKERELVAAITSGGNTYYADSVKGRFTISRDNAKNTVYLQMNSLIPEDTAVYYCAVVFWQLAHRYDYWGQGTQVTVSS” the “polyreactivity (PSR sort gate)” value was “low polyreactivity”. In the case of “QVQLVESGGGLVQAGGSLRLSCAASGSTFFRYAMGWYRQAPGKERELVAAITSSGGRTYYADSVKGRFTISRDNAKNTVYLQMNSLKPEDTAVYYCADASGTSPYDYWGQGTQVTVSS”, the “polyreactivity (PSR sort gate)” value is reported as “high polyreactivity”. With “QVQLVESGGGLVQAGGSLRLSCAASGSTFFSKAMGWSRQEPGKERELVAAISRSGATTSYADSVKGRFTISRDNAKNTVYLQMNSLKPEDTAVYYCAVGRRYYQDYDYSGQGTQVTVSS” the “polyreactivity (PSR sort gate)” value was “high polyreactivity”. With “QVQLVESGGGLVQAGGSLRLSCAASGSTFFSNAMGWYRQAPGKERELVAAISGSGDSTYYADSVKGRFTISRDNAKNTVYLQMNSLKPEDTAVYYCAARLSTAHYYLGDYWGQGTEVTVSS” the “polyreactivity (PSR sort gate)” value was “low polyreactivity”. With “QVQLVESGGGLVQAGGSLRLSCAASGSTFFTYAMGWYRQAPGKERELVAAISWSGGTTYYADSVKGRFTISRDNAKNTVYLQMNSLKPEDTAVYYCASDRDGILKANDYWGQGTQVTVSS” the “polyreactivity (PSR sort gate)” value was “low polyreactivity”. In the case of “QVQLVESGGGLVQAGGSLRLSCAASGSTFFTYAMGWYRQAPGKERELVAGISYSGGSTYYADSVKGRFTISRDNAKNTVYVQMNSLKPEDTAVYYCNAYISYGDFDLEFYYWGQGTQVTVSS”, the “polyreactivity (PSR sort gate)” value is reported as “low polyreactivity”. For “QVQLVESGGGLVQAGGSLRLSCAASGSTFFYNAMGWYRQAPGKERELVAAISRGGGITYYADSVKGRFTISRDNAKNTVYLQMNSLKPEDTAVYYCQYLSRGLNTYRSSQGDDDYWGQGTQVTVSS”, the “polyreactivity (PSR sort gate)” value was “high polyreactivity”. For “QVQLVESGGGLVQAGGSLRLSCAASGSTFFYYAMGWYRQAPGKDRELVAAISGGGGDTTYADSVKGRFTISRDNAKNTVYLQMNSLKPEDTAVYYCAAVPGSFGSGIFDYWGQGTQATVSS”, the “polyreactivity (PSR sort gate)” value was “low polyreactivity”. For “QVQLVESGGGLVQAGGSLRLSCAASGSTFFYYAMGWYRQAPGKERELVAAISQSSASTYYADSVKGRFTISRDNAKNTIYLQMNSLKPEDTAVYYCAADYWSVPYIYEYWGQGTQVTVSS”, the “polyreactivity (PSR sort gate)” value was “high polyreactivity”. In the case of “QVQLVESGGGLVQAGGSLRLSCAASGSTFGANAMGGYRQAPGKERELVATISSGGRTYYADSVKGRFTISRDNAKNTVYLQMNSLKPEDTAVYYCNAGADYTYVYISVYVLYDYWGQGTQVTVSS”, the “polyreactivity (PSR sort gate)” value is reported as “low polyreactivity”. With “QVQLVESGGGLVQAGGSLRLSCAASGSTFGANAMGLYRQAPGKEREFVAAISRSGVRTYYADSVKGRFTISRDNAQNTVYLQMNSLKPEDTAVYYCAADGYWWTYTRYDYWGQGTQVTVSS” the “polyreactivity (PSR sort gate)” value was “low polyreactivity”. In the case of “QVQLVESGGGLVQAGGSLRLSCAASGSTFGANAMGWYRQAPGKERELVAAITYDGGSTYYADSVKGRFTISRDTAKNTVYLQMNSLKPEDTAVYYCAADFHIDSYYWGYYWGQGTQVTVSS”, the “polyreactivity (PSR sort gate)” value is reported as “low polyreactivity”. In the case of “QVQLVESGGGLVQAGGSLRLSCAASGSTFGAYAMGWYRQAPGKEREFVAGISVRGGSTYYADSVKGRFTISRDNAKNTVYLQMNSLKPEDTAVYYCAARRVDTRVHVRYRYYYWGQGTQVTVSS”, the “polyreactivity (PSR sort gate)” value is reported as “high polyreactivity”. For “QVQLVESGGGLVQAGGSLRLSCAASGSTFGAYAMGWYRQAPGKERELVAAISKRGGSTYYADSVKGRFTISLDNAKNTVYLQMNSLKPEDTAVYYCATDHFSPTYGYWGQGTQVTVSS”, the “polyreactivity (PSR sort gate)” value was “low polyreactivity”. In the case of “QVQLVESGGGLVQAGGSLRLSCAASGSTFGAYAMGWYRQAPGKERELVAAISSSDGSTYYADSVKGRFTISRDNAKNTVYLQMNSLKPEDTAVYYCAAEYYSAVYIDEYWYDYWGQGTQVTVSS”, the “polyreactivity (PSR sort gate)” value is reported as “high polyreactivity”. In the case of “QVQLVESGGGLVQAGGSLRLSCAASGSTFGAYAMGWYRQAPGKERELVAAISSSGGRTYYADSVKGRFTISRDNAKNTVYLQMNSLKPEDTAVYYCATYYRHYDLLYYYWGQGTQVTVSS”, the “polyreactivity (PSR sort gate)” value is reported as “high polyreactivity”. For “QVQLVESGGGLVQAGGSLRLSCAASGSTFGDYAMGWYRPAPGKERELVAAITIGGITTYADSVKGRFTISRDNAKNTVYLQMNSLKPEDTAVYYCAAAERGDWDDYWGQGTQVTVSS”, the “polyreactivity (PSR sort gate)” value was “low polyreactivity”. For “QVQLVESGGGLVQAGGSLRLSCAASGSTFGDYAMGWYRQAPGKERELVAAISFSDDSTYYADSVKGRFTISRDNAKNTVYLQMNSLKPEDTAVYYCAKEAEYSTPGGDYWGQGTQVTVSS”, the “polyreactivity (PSR sort gate)” value was “low polyreactivity”. In the case of “QVQLVESGGGLVQAGGSLRLSCAASGSTFGENAMGWYRQAPGKERELVAAINYSGGSTYYADSVKGRFTISRDNAKNTVYLQMNRLKPEDTAVYYCAAVNLPQLYYDYDYWGQGTQVTVSS”, the “polyreactivity (PSR sort gate)” value is reported as “low polyreactivity”. In the case of “QVQLVESGGGLVQAGGSLRLSCAASGSTFGENDMGWYRQAPGKERELVAAITWSGGSTYYADSVKGRFTISRDNAKNPVYLQLNSLNPEDTAVYYCAARSTYRHWYRTGSRFDYWGQGTQVTVSS”, the “polyreactivity (PSR sort gate)” value is reported as “low polyreactivity”. With “QVQLVESGGGLVQAGGSLRLSCAASGSTFGEYAMGWYRQAPGKERELVAAITFSGGSTYYADSVKGRFTISRDNAKNTVYLQMNSLKPEDTAVYYCNADGVWVYGYRWEWLWYDYWGQGTQVTVSS” the “polyreactivity (PSR sort gate)” value was “low polyreactivity”.
